According to patent US20050100965A1:

Target: recombinant IL18 (YK27-1) (Homo sapiens (Human)) (UniProt Q14116)
Assay: cell-based or functional assay

B1: Murine anti-human IL-18 mAb (125-2H) (antibody, from another filing, V domains shown)
VH: EIQLQQSGPELVKPGASVKVSCKASGYSFTDYFIYWVKQSHGKSLEWIGDIDPYNGDTSYNQKFRDKATLTVDQSSTTAFMHLNSLTSEDSAVYFCARGLRFWGQGTLVTVSA
VL: DIQMTQSPSSLSASLGERVSLTCRASQDIGSKLYWLQQEPDGTFKRLIYATSSLDSGVPKRFSGSRSGSDYSLTISSLESEDFVDYYCLQYASSPYTFGGGTKLAIKR
IFN (interferon γ) transcript level, quantitative PCR, whole blood stimulated with IL18+IL12, donor1n (Unstimulated 0.002, Stimulated 0.339): 0.07 | IFN (interferon γ) transcript level, quantitative PCR, whole blood stimulated with IL18+IL12, donor 3n (Unstimulated 0.001, Stimulated 0.187): 0.026 | IFN (interferon γ) transcript level, quantitative PCR, whole blood stimulated with IL18+IL12, donor4n (Unstimulated 0.001, Stimulated 0.082): 0.027 | IFN (interferon γ) transcript level, quantitative PCR, whole blood stimulated with IL18+IL12, donor 5n (Unstimulated 0.003, Stimulated 0.012): 0.006 | IFN (interferon γ) transcript level, quantitative PCR, whole blood stimulated with IL18+IL12, donor6n (Unstimulated 0.002, Stimulated 0.076): 0.01 | IFN (interferon γ) transcript level, quantitative PCR, whole blood stimulated with IL18+IL12, donor7n (Unstimulated 0.002, Stimulated 0.049): 0.012 | IFN (interferon γ) transcript level, quantitative PCR, whole blood stimulated with IL18+IL12, donor8n (Unstimulated 0.002, Stimulated 0.049): 0.012 | IFN (interferon γ) transcript level, quantitative PCR, whole blood stimulated with IL18+IL12, donor 9n (Unstimulated 0.001, Stimulated 1.250): 0 | IFN (interferon γ) transcript level, quantitative PCR, whole blood stimulated with IL18+IL12, donor10n (Unstimulated 0.002, Stimulated 0.361): 0.002
